In patent US20240090511A1 one finds competitor peptide concentration data, which are given here for one molecule.

The test addresses N. viridula BBMV proteins. Kind of test: competition pull-down: biotinylated peptide against ABP5-(AP)5-mCherry on BBMV.

B1: biotinylated synthetic peptide (ABP5) (peptide)
peptide: MDWPRRN
modifications: biotinylated (position not given)
B1: the competitor peptide concentration at which binding was outcompeted was > 10 µM.
